# Measured values as given in publication PMC3170560.
# B1: mBnHO1 (mature BnHO1, haem oxygenase-1) (Brassica napus) (protein)
# chain: ATAAEKQKKKRYPGESKGFVEEMRFVAMRLHTKEQAKEGEKETKAPEERPVAKWEPTVEGYLRFLVDSKLVYDTLEEIIGQSTFPTYAEFKNTGLERAEKLDTDLKWFKEQGYEIPEPTATGKKYSQYLKDLADKDPPSFICHFYNIYFAHSAGGRMIGRKVAERILDNRELEFYKWDGDLSELLQNVREKLNKVAEEWTREEKNHCLVGDRESFKYSGEILRLILS
# Substrate: C=CC1=C(C)C2=Cc3c(C=C)c(C)c4[n]3[Fe]([Cl])[n]3c(c(C)c(CCC(=O)O)c3=CC3=NC(=C4)C(C)=C3CCC(=O)O)=CC1=N2
# Experiment: purified protein
# Conditions: haemin 1-20 μM, NADPH added to start, 0.1 M HEPES-NaOH pH 7.2
protein,measurement,value
B1,Km,2.52 µM
